Test results published in the Human Domainome abundance scans (Beltran et al. 2025).
± gives the uncertainty stated by the source.

B1: POU domain, class 3, transcription factor 2, residues 356 to 411; numbered along this chain, P20265 (parent)
chain: KKRTSIEVSVKGALESHFLKCPKPSAQEITSLADSLQLEKEVVRVWFCNRRQKEKR

Variants of: B1
Test: abundance fitness (aPCA) (normalised: wild type 0, dead -1); higher = more abundant; growth selection in yeast, the domain comes from the species named
Conditions: Homo sapiens

Variant	abundance fitness
KKRTSIEVSVKGALESHFLKCPKPSAQEITSLADSLQLEKEVVRVWSCNRRQKEKR [F47S]	-0.871 ± 0.12
KKRTSIEVSVKGALESHFLKCPKPSAQEITSLADSLQLEKEVVRVWGCNRRQKEKR [F47G]	-0.698 ± 0.14
KKRTSIEVSVKGALESHFLKCPKPSAQEITSLADSLQLEKEVVRVWPCNRRQKEKR [F47P]	-0.941 ± 0.24
KKRTSIEVSVKGALESHFLKCPKPSAQEITSLADSLQLEKEVVRVWLCNRRQKEKR [F47L]	-0.722 ± 0.1
KKRTSIEVSVKGALESHFLKCPKPSAQEITSLADSLQLEKEVVRVWYCNRRQKEKR [F47Y]	-0.328 ± 0.14
KKRTSIEVSVKGALESHFLKCPKPSAQEITSLADSLQLEKEVVRVWACNRRQKEKR [F47A]	-0.92 ± 0.15
KKRTSIEVSVKGALESHFLKCPKPSAQEITSLADSLQLEKEVVRVWICNRRQKEKR [F47I]	-0.751 ± 0.21
KKRTSIEVSVKGALESHFLKCPKPSAQEITSLADSLQLEKEVVRVWNCNRRQKEKR [F47N]	-0.967 ± 0.38
KKRTSIEVSVKGALESHFLKCPKPSAQEITSLADSLQLEKEVVRVWQCNRRQKEKR [F47Q]	-1 ± 0.19
KKRTSIEVSVKGALESHFLKCPKPSAQEITSLADSLQLEKEVVRVWECNRRQKEKR [F47E]	-0.672 ± 0.17
KKRTSIEVSVKGALESHFLKCPKPSAQEITSLADSLQLEKEVVRVWCCNRRQKEKR [F47C]	-0.937 ± 0.27
KKRTSIEVSVKGALESHFLKCPKPSAQEITSLADSLQLEKEVVRVWKCNRRQKEKR [F47K]	-0.961 ± 0.21
KKRTSIEVSVKGALESHFLKCPKPSAQEITSLADSLQLEKEVVRVWDCNRRQKEKR [F47D]	-0.852 ± 0.37
KKRTSIEVSVKGALESHFLKCPKPSAQEITSLADSLQLEKEVVRVWVCNRRQKEKR [F47V]	-0.784 ± 0.13
KKRTSIEVSVKGALESHFLKCPKPSAQEITSLADSLQLEKEVVRVWMCNRRQKEKR [F47M]	-0.43 ± 0.12
KKRTSIEVSVKGALESHFLKCPKPSAQEITSLADSLQLEKEVVRVWFCCRRQKEKR [N49C]	-0.14 ± 0.11
KKRTSIEVSVKGALESHFLKCPKPSAQEITSLADSLQLEKEVVRVWFCARRQKEKR [N49A]	-0.239 ± 0.093
KKRTSIEVSVKGALESHFLKCPKPSAQEITSLADSLQLEKEVVRVWFCDRRQKEKR [N49D]	0.221 ± 0.2
KKRTSIEVSVKGALESHFLKCPKPSAQEITSLADSLQLEKEVVRVWFCERRQKEKR [N49E]	0.066 ± 0.12
KKRTSIEVSVKGALESHFLKCPKPSAQEITSLADSLQLEKEVVRVWFENRRQKEKR [C48E]	0.149 ± 0.15
KKRTSIEVSVKGALESHFLKCPKPSAQEITSLADSLQLEKEVVRVWFKNRRQKEKR [C48K]	0.101 ± 0.16
KKRTSIEVSVKGALESHFLKCPKPSAQEITSLADSLQLEKEVVRVWFWNRRQKEKR [C48W]	-0.007 ± 0.1
KKRTSIEVSVKGALESHFLKCPKPSAQEITSLADSLQLEKEVVRVWFYNRRQKEKR [C48Y]	0.096 ± 0.12
KKRTSIEVSVKGALESHFLKCPKPSAQEITSLADSLQLEKEVVRVWFINRRQKEKR [C48I]	-0.004 ± 0.18

Variant	abundance fitness
KKRTSIEVSVKGALESHFLKCPKPSAQEITSLADSLQLEKEVVRVWFDNRRQKEKR [C48D]	-0.053 ± 0.14
KKRTSIEVSVKGALESHFLKCPKPSAQEITSLADSLQLEKEVVRVWFVNRRQKEKR [C48V]	-0.015 ± 0.084
KKRTSIEVSVKGALESHFLKCPKPSAQEITSLADSLQLEKEVVRVWFANRRQKEKR [C48A]	-0.096 ± 0.1
KKRTSIEVSVKGALESHFLKCPKPSAQEITSLADSLQLEKEVVRVWFLNRRQKEKR [C48L]	-0.059 ± 0.092
KKRTSIEVSVKGALESHFLKCPKPSAQEITSLADSLQLEKEVVRVWFPNRRQKEKR [C48P]	-0.948 ± 0.23
KKRTSIEVSVKGALESHFLKCPKPSAQEITSLADSLQLEKEVVRVWFHNRRQKEKR [C48H]	-0.118 ± 0.19
KKRTSIEVSVKGALESHFLKCPKPSAQEITSLADSLQLEKEVVRVWFNNRRQKEKR [C48N]	-0.165 ± 0.19
KKRTSIEVSVKGALESHFLKCPKPSAQEITSLADSLQLEKEVVRVWFRNRRQKEKR [C48R]	-0.217 ± 0.091
KKRTSIEVSVKGALESHFLKCPKPSAQEITSLADSLQLEKEVVRVWFTNRRQKEKR [C48T]	-0.105 ± 0.14
KKRTSIEVSVKGALESHFLKCPKPSAQEITSLADSLQLEKEVVRVWFQNRRQKEKR [C48Q]	0.141 ± 0.15
KKRTSIEVSVKGALESHFLKCPKPSAQEITSLADSLQLEKEVVRVWFFNRRQKEKR [C48F]	0.078 ± 0.12
KKRTSIEVSVKGALESHFLKCPKPSAQEITSLADSLQLEKEVVRVWFMNRRQKEKR [C48M]	-0.052 ± 0.15
KKRTSIEVSVKGALESHFLKCPKPSAQEITSLADSLQLEKEVVRVPFCNRRQKEKR [W46P]	-0.986 ± 0.15
KKRTSIEVSVKGALESHFLKCPKPSAQEITSLADSLQLEKEVVRVTFCNRRQKEKR [W46T]	-0.958 ± 0.17
KKRTSIEVSVKGALESHFLKCPKPSAQEITSLADSLQLEKEVVRVVFCNRRQKEKR [W46V]	-0.933 ± 0.12
KKRTSIEVSVKGALESHFLKCPKPSAQEITSLADSLQLEKEVVRVKFCNRRQKEKR [W46K]	-0.845 ± 0.18
KKRTSIEVSVKGALESHFLKCPKPSAQEITSLADSLQLEKEVVRVQFCNRRQKEKR [W46Q]	-0.78 ± 0.16
KKRTSIEVSVKGALESHFLKCPKPSAQEITSLADSLQLEKEVVRVMFCNRRQKEKR [W46M]	-0.922 ± 0.14
KKRTSIEVSVKGALESHFLKCPKPSAQEITSLADSLQLEKEVVRVLFCNRRQKEKR [W46L]	-0.934 ± 0.091
KKRTSIEVSVKGALESHFLKCPKPSAQEITSLADSLQLEKEVVRVNFCNRRQKEKR [W46N]	-0.896 ± 0.3
KKRTSIEVSVKGALESHFLKCPKPSAQEITSLADSLQLEKEVVRVSFCNRRQKEKR [W46S]	-0.698 ± 0.1
KKRTSIEVSVKGALESHFLKCPKPSAQEITSLADSLQLEKEVVRVYFCNRRQKEKR [W46Y]	-0.648 ± 0.24
KKRTSIEVSVKGALESHFLKCPKPSAQEITSLADSLQLEKEVVRVRFCNRRQKEKR [W46R]	-0.805 ± 0.084
